Assay results from PMC1343571.

Legend:
[1] = target: Human surfactant protein-A (SP-A) (human) (UniProt Q8IWL2)
[2] = target: Human surfactant protein-A (SP-A) (human) (UniProt Q8IWL2); assay: SEC; gel filtration HPLC, two Biosep-SEC-S 4000 columns in series; SP-A (1.62 mg/ml) and α1-AT (1 mg/ml), 1:50 molar ratio, incubated 24 hrs at 37°C in phosphate buffer; eluted with 100 mM Na2HPO4, 2 mM CaCl2, pH 6.8

## Wild-type α1-antitrypsin (M α1-AT) (from UniProt P01009 25-418) (natural protein)
[1]
  turnover number per inactivation of HNE, unmodified SP-A with α1-AT: 24
[2]
  stoichiometry N (molecules of α1-AT per molecule of SP-A): 18
